Experimental data taken from the supplement of paper PMC6379048.

Tests used:
Assay in all cases: Kd (EC50 corrected by depletion factor)
[1] = molecular target: MRPS22 (UniProt P82650)
In short: (§1)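 Free RNA oligos (0 nM to 30 μM) were pre-incubated with HEK293-FT lysate (2.5 mg protein/well) for 1 h at 4°C, followed by 30 min at 4°C with the same 5′-amino-C6 oligos coupled to NHS-Sepharose beads. Bound proteins were quantified by label-free LC-MS/MS and normalised to the control. EC50 was derived from a four-parameter log-logistic fit, and Kd was obtained by multiplying EC50 by a protein-dependent depletion factor.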

[2] = molecular target: MRPS7 (UniProt Q9Y2R9)
In short: as §1

[3] = molecular target: HNRNPA2B1 (UniProt P22626)
Sequence of HNRNPA2B1 (P22626 whole entry): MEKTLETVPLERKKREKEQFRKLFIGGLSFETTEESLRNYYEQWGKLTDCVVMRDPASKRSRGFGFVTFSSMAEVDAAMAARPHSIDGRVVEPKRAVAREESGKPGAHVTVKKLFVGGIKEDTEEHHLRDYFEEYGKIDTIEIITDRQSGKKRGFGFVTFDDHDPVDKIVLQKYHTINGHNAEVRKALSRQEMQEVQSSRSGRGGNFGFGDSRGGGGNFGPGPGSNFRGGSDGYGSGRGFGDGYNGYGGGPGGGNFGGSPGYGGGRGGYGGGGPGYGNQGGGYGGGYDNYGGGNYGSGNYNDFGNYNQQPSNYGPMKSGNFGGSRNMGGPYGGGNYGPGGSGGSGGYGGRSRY
In short: as §1

[4] = molecular target: PCBP2 (UniProt Q15366)
Sequence of PCBP2 (Q15366 whole entry): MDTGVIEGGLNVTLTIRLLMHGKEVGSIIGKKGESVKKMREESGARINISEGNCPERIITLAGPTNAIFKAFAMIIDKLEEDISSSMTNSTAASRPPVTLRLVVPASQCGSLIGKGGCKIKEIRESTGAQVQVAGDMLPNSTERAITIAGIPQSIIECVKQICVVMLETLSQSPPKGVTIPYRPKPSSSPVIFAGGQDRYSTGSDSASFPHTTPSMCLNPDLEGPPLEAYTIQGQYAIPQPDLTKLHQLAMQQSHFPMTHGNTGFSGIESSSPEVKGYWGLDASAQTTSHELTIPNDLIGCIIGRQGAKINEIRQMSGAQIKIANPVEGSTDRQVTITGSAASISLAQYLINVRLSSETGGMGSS
In short: as §1

[5] = molecular target: HNRNPK (UniProt P61978)
In short: as §1

[6] = molecular target: T1, DHX30 (UniProt Q7L2E3)
T1 sequence: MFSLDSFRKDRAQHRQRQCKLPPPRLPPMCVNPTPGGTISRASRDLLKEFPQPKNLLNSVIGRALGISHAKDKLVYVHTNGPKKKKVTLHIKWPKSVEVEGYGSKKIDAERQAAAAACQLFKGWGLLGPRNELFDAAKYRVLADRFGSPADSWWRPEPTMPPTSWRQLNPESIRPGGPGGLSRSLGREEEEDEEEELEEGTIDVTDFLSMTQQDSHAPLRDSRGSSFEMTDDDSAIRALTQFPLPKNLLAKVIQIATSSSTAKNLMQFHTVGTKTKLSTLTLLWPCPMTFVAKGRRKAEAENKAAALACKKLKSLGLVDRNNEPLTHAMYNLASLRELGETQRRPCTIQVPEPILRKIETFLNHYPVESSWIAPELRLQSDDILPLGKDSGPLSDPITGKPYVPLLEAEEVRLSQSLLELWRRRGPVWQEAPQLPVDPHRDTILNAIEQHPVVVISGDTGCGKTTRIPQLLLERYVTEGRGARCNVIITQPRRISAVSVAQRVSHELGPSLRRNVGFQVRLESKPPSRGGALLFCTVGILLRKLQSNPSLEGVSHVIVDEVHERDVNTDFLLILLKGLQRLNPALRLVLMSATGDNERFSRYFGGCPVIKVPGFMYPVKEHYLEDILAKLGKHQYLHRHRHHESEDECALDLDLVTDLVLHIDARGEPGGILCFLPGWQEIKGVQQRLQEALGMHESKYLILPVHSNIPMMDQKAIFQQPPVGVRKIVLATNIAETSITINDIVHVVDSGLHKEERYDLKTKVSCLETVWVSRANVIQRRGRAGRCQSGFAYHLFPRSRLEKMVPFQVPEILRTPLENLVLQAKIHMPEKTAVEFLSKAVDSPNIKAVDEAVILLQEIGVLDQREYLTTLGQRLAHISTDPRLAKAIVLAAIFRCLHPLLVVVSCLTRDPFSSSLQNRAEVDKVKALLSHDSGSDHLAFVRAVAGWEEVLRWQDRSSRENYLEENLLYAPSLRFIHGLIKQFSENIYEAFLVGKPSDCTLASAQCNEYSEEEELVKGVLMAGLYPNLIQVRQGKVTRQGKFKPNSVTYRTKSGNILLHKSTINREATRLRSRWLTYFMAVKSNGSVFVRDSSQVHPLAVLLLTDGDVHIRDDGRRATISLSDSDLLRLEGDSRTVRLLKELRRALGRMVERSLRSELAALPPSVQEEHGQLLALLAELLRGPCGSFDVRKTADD
In short: as §1

[7] = molecular target: SF3B6 (UniProt Q9Y3B4)
Sequence of SF3B6 (Q9Y3B4 whole entry): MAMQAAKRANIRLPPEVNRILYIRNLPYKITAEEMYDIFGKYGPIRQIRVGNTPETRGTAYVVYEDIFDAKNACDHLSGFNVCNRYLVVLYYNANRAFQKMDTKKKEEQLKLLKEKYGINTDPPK
In short: as §1

Sequence: UAUUUAU
- Kd [1]: 57.8 nM
- Kd [2]: 29.4 nM
- Kd [3]: 4900 nM

Sequence: CUGUCCU
- Kd [4]: 1240 nM
- Kd [5]: 1630 nM
- Kd [6]: 58.7 nM

Sequence: AAUAAA
- Kd [7]: 2270 nM
